Target: Zika virus envelope (E) glycoprotein, strain H/PF/2013 (French Polynesia), on mature infectious virions (Zika virus strain H/PF/2013, French Polynesia)
Assay: cryo-EM structure; mature ZIKV H/PF/2013 particles incubated with ZIKV-117 Fab at 4 °C for 2–3 h, flash-frozen on lacey carbon grids; icosahedral reconstruction at 6.2 Å; E dimer (PDB 5IRE) and Fab domains (ZV-67, PDB 5KVG) fitted; occupancies by EMfit

B1: ZIKV-117 Fab (Fab fragment of the human monoclonal antibody ZIKV-117) (Fab, V domains shown)
VH: QVQLVESGGGVVRPGGSLRLSCAASGFTFKNYGIHWVRQAPGKGPEWVAFVRYDGNNKYYADSVKGRFTISRDNAKNTLSLQMNSLRVEDTAVYFCARDPETFGGFDYWGQGTLVTVSS
VL: ETVMTQSPATLSVSPGERGTLSCRASESVSSNLAWYQQKPGKAPRLLIYGASTRATGIPDRFSGSGSGTEFTLTISSLQSEDFAVYYCQQYYYSPRTFGQGTKVEVK
With B1 the Fabs bound per virion at saturation (Fabs per virion (180 sites)) was 60, the Fabs per virion at the 2f sites (Fabs per virion) was 21 and the Fabs per virion at the 3f sites (Fabs per virion) was 35. The occupancy at the 2f site (average Fab density relative to E protein density) was 35% and the occupancy at the 3f site (average Fab density relative to E protein density) was 58%.

— PMC5356071
